From publication PMC7790862

Target: HA-tagged human Junctophilin-2 with seven point mutations in the Joining region (Ad-mut^PG1JPH2) (human) (UniProt Q9BR39)
Experiment: co-IP + proximity ligation

percent reduction of the interaction against WT-JPH2: 30 to 40%
Substance: L-type Ca2+ channel pore-forming subunit α1C (natural protein)
